Measured values taken from the nanobody polyreactivity screen of Harvey et al. (2022).

assay: yeast display, Sf9 membrane polyspecificity reagent, FACS + sequencing; frameworks hold sequencing errors
Outline: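 Nanobodies from a synthetic yeast display library (Saccharomyces cerevisiae BJ5465), induced 36–48 hours with galactose, were stained 1 hour at 4 °C with 10% biotinylated, detergent-solubilized Sf9 membrane reagent, enriched on streptavidin microbeads, then FACS-sorted. Anti-HA (expression) and streptavidin (reagent binding) fluorescence set low and high (top ~1%) gates. Polyreactivity labels come from the gate of origin. Genes were colony-PCR amplified, MiSeq 2 × 250 sequenced and filtered by CDR length.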

Row | Sequence | polyreactivity (PSR sort gate)
1 | QVQLVESGGGLVQAGGSLRLSCAASGRIFYSNAMGWYRQAPGKERELVAAISRSGVRTYYADSVKGRFTISRDNAKNTVYLQMNSLKPEDTAVYYCAAVIYGTTPQDEYDYWGQGTQVTVSS | low polyreactivity
2 | QVQLVESGGGLVQAGGSLRLSCAASGSIFYRNAMGWYRQAPGKERELVAAITSSGGSTYYADSVKGRFTISRDNAKNTVYLQMNSLKPEDTAVYYCATRGWSKQLYGGYTQYYYWGQGTQVTVSS | high polyreactivity
3 | QVQLVESGGGLVQAGGSLRLSCAASGVTFNYNAMGWYRQAPGKERELVATITGSTYYADSVKGRFTISRDNAKNTVYLQMNSLKPEDTAVYYCTADASLVLAEYDYWGQGTQVTVSS | low polyreactivity
4 | QVQLVESGGGLVQAGGSLRLSCAASGLIFKKYTMGWYRQAPGKERELVASISKSGGSTYYADSVKARFTISRDNAKNTVYLQMNSLKPEDTAVYYCAVGSTDRVSAQGSYFTYDYWGQVTQVTVSS | low polyreactivity
5 | QVQLVESGGGLVQAGGSLRLSCAASGGTFSKYAMGWYRQAPGKERELVAAITYSSGSKYYADSVKGRFTISRDNAKNTVYLQMNSLKPEDTADYYCAARSGLYWWRFDYWGQGTQVTVSS | high polyreactivity
6 | QVQLVESGGGLVQAGGSLRLSCAASGSIFLPYAMGWYRQAPGKERELVAAIDTSSGSTYYADSVKGRFTISRDNAKNTVYLQMNSLKPEDTAVYYCNADYWVQGDDWLLYDYWGQGTQVTVSS | low polyreactivity
7 | QVQLVESGGGLVQAGGSLRLSCAASGRTFYKYAMGWSRQAPGKERELVAAISSDGTTYYADSVKGRFTISRDNAKNTVYLQMNSLKPEDTAVYYCAADPPPPFLYVSVQEYDYWGQGTQVTVSS | low polyreactivity
8 | QVQLVESGGGLVQAGGSLRLSCAASGSIFLSYAMGWYRQAPGKERELVAAISGRGGSTYYADSVKGRFTISRDNAKNTGYLQMNSLKPEDTAVNYCASEQWGWYWYDYWGQGTQVTVSS | high polyreactivity
9 | QVQLVESCGGLVQAGGSLRLSCAASGRIFLYNAMGWYRQAPGKERELVAVISRNGGSTYYADSVKGRFTISRDNAKNTVYLQMNSLKPEDTAVYYCNRYDRLAGRTTYDYWGQGSQVTVSS | high polyreactivity
10 | QVQLVESGGGLVQAGGSLRLSCAASGRIFKYYAMGWYRQAPGKERELVARISSGGGRTYYADSVKGRFTISRDNAKNTVYLQMNSLKPEDTAVYYCAADPPASYHTWYGYWGQGTQVTVSS | high polyreactivity
11 | QVQLVESGGGLVQAGGSLRLSCAASGRTFGNNAMGWYRQAPGKERELVAAITGSGGSTYYADSVKGRFTISRDNAKNTVYLQMNSLKPEDTAVYYCAAVVYGAVRGSRYPYYYWGQGTQVTVSS | high polyreactivity
12 | QVQLVESGGGLVQAGGSLRLSCAASGSTFAFYAMGWYRPAPGKERELVAAITWDGGTTYYADSVKGRFTIARDNAKNTVYLQMNSLKPEDSAVYYCAADYASVSIYDNVPSAPGYDYWGQGTQVTVSS | low polyreactivity
13 | QVQLVESGGGLVQAGGSLRLSCAASGRISYYYLGWYRQAPGKERELVAAISWNGGRTYYADSVKGRFTISRDNAKNTVYLQMNSLKPEDTAVYYCAAKTGYYPYGYWGQGTQVTVSS | high polyreactivity
14 | QVQLVESGGGLVQAGGSLRLSCAASGRIFVLYAMGWYRQAPGKERELVAAISTSGGSTYYADSVKGRFTISRDNAKNTVYLQMNSLKPEDTAVYYCAADRSARFLFIQYYPYGMDYWGQGTQVTVSS | high polyreactivity
15 | QVQLVESGGGLVQAGGSLRLSCAASGRTFISYAMGWYRQAPGKERELVAAIDFSDGSTYYADSVKGRFTISRDNAKNTVYLQMNSLKPEDTAVYYCAADDPGLGYWSLTWYDYWGQGTQVTVSS | high polyreactivity
16 | QVQLEESGGGLVQAGGSLRLSCAASGSIFFEYAMGWYRQAAGKERELVASINRGGGSTYYADSVKGRYTISRDNAKKNVYLQMNSLKPEDTAVYYCAAQWKYRQSYLDYYWGQGTQVTVSS | low polyreactivity
